# System: N=C(N)NCCC[C@H](NC(=O)[C@H](Cc1ccccc1)NC(=O)[C@@H]1CCCN1C(=O)c1ccccc1)C(=O)Nc1ccc([N+](=O)[O-])cc1
# Assay: Km and vmax determination with substrate (Lineweaver-Burk), plasma kallikrein
# Assay type: biochemical
# Settings: other: plasma kallikrein; substrate concentration varied, enzyme constant; measured at 405 nm
# Procedure: As is evident from equation (2) constants Km and k3 determine the activity of the enzyme substrate for a given enzyme. For determining these constants the following procedure is followed:
# The enzyme and the substrate are mixed in a buffer solution, and the reaction is followed spectrophotometrically for 2 to 30 minutes. The concentration of substrate [S] is varied, whereas the enzyme concentration [E] is kept constant. If the extinction (OD) (= optical density) is plotted in a co-ordinate system as a function of time, a curve is obtained the tangent of which (difference in extinction per minute, Δ OD/minute, from which the quantity in μmoles of pNA/min (v) can be calculated) at time zero corresponds to the ideal course of the hydrolysis. By means of this tangent the initial rate of the hydrolysis can be determined.
# If 1/v is plotted against 1/[S], a Lineweaver-Burk diagram (cf. "Kurzes Lehrbuch der Biochemie" by P. KARSON, Georg Thieme-Verlag, Stuttgart, 1967, p. 70) is obtained from which vmax and Km can be determined graphically.
# Km and k3 = vmax /E were determined with N^α-Bz-Pro-Phe-Arg-pNA^. HCl (i.e. the substrate prepared according to Example 1) for plasma kallikrein, trypsin, plasmin and thrombin.
# plasma kallikrein (Homo sapiens), sequence (chain, as listed by the source): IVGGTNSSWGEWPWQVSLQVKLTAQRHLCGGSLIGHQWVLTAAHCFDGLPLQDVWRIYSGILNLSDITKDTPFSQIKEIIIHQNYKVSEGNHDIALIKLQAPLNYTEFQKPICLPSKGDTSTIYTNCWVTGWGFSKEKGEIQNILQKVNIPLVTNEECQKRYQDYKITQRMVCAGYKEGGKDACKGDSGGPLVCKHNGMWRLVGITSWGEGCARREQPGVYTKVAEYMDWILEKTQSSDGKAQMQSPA
substance,measurement,value
plasma kallikrein (Homo sapiens),Km,282 µM
